Experimental data: article PMC6617973, “RAF dimers control vascular permeability and cytoskeletal rearrangements at endothelial cell‐cell junctions” (The Febs Journal, 2019)

Target: T1, RAF1 (endogenous, pMECs) (mouse (endogenous in pMECs), UniProt Q99N57 1-648)
T1 construct: RAF1 kinase, endogenous in primary mouse endothelial cells; source: endogenous, pMEC lysate
Assay: co-IP; RAF1 immunoprecipitates from lysates of F/F and BRAFΔ/Δ pMEC monolayers; Protein G Sepharose with antibody, 4 °C overnight; 25 mM HEPES, 150 mM NaCl, 1 mM EGTA, 0.5% NP-40, 10% glycerol; immunoblot
Conditions: partners not purified

B1: RHO‐dependent kinase α (enzyme, mouse (endogenous in pMECs), UniProt P70336 1-1388, looked up)
chain: MSRPPPTGKMPGAPEAAPGDGAGAGRQRKLEALIRDPRSPINVESLLDGLNSLVLDLDFPALRKNKNIDNFLNRYEKIVKKIRGLQMKAEDYDVVKVIGRGAFGEVQLVRHKASQKVYAMKLLSKFEMIKRSDSAFFWEERDIMAFANSPWVVQLFCAFQDDRYLYMVMEYMPGGDLVNLMSNYDVPEKWAKFYTAEVVLALDAIHSMGLIHRDVKPDNMLLDKHGHLKLADFGTCMKMDETGMVHCDTAVGTPDYISPEVLKSQGGDGYYGRECDWWSVGVFLFEMLVGDTPFYADSLVGTYSKIMDHKNSLCFPEDTEISKHAKNLICAFLTDREVRLGRNGVEEIKQHPFFKNDQWNWDNIRETAAPVVPELSSDIDSSNFDDIEDDKGDVETFPIPKAFVGNQLPFIGFTYFRENLLLSDSPPCRENDAIQTRKSEESQEIQKKLYALEEHLSSEVQAKEELEQKCKSINTRLEKTAKELEEEITLRKSVESTLRQLEREKALLQHKNAEYQRKADHEADKKRNLENDVNSLKDQLEDLKKRNQSSQISTEKVNQLQKQLDEANALLRTESDTAARLRKTQAESSKQIQQLESNNRDLQDKNCLLETAKLKLEKEFINLQSALESERRDRTHGSEIINDLQGRISGLEEDLKTGKALLAKVELEKRQLQEKLTDLEKEKSNMEIDMTYQLKVIQQSLEQEEAEHKTTKARLADKNKIYESIEEAKSEAMKEMEKKLLEERSLKQKVENLLLEAEKRCSILDCDLKQSQQKLNELLKQKDVLNEDVRNLTLKIEQETQKRCLMQNDLKMQTQQVNTLKMSEKQIKQENNHLMEMKMNLEKQNTELRKERQDADGQMKELQDQLEAEQYFSTLYKTQVRELKEENEEKTKLCKELQQKKQDLQDERDSLAAQLEITLTKADSEQLARSIAEEQYSDLEKEKIMKELEIKEMMARHKQELTEKDTTIASLEETNRTLTSDVANLANEKEELNNKLKDSQEQLSKLKDEEMSAAAIKAQFEKQLLNERTLKTQAVNKLAEIMNRKEPVKRGSDTDVRRKEKENRKLHMELKSEREKLTQQMIKYQKELNEMQAQIAEESQIRIELQMTLDSKDSDIEQLRSQLQALHIGMDSSSIGSGPGDAEPDDGFPESRLEGWLSLPVRNNTKKFGWVKKYVIVSSKKILFYDSEQDKEQSNPYMVLDIDKLFHVRPVTQTDVYRADAKEIPRIFQILYANEGESKKEPEFPVEPVGEKSNYICHKGHEFIPTLYHFPTNCEACMKPLWHMFKPPPALECRRCHIKCHKDHMDKKEEIIAPCKVYYDISSAKNLLLLANSTEEQQKWVSRLVKKIPKKPPAPDPFARSSPRTSMKIQQNQSIRRPSRQLAPNKPS
notes: ROKalpha (ROCK2), endogenous in primary mouse endothelial cells; also called ROKα; ROK; source: endogenous, pMEC lysate
Q: Which “fold increase of the co-precipitate in BRAF-deficient against F/F pMECs” value does the source give for B1 here?
A: 3 fold
